Measurements taken from patent US10942183B2, “Methods of detecting progesterone receptor and of detecting an expression level” (REGENTS OF THE UNIVERSITY OF MINNESOTA, priority 2017, dated 2021).

Tested on: T47D cells
Assay: Mammosphere formation in T47D cells
Type: cell-based, human
Settings: T47D cells, EGF 20 ng/ml, 14 days
Experimental: Primary Mammospheres: Adherent cells were washed with PBS and dissociated enzymatically in 0.25% trypsin-EDTA (Invitrogen Corporation, Carlsbad, Calif.). Cells were sieved through a 40-μm sieve (BD FALCON, BD Biosciences, Bedford, Mass.) and analyzed microscopically for single-cellularity. Single cells were plated in ultra-low attachment plates (Corning, Inc., Corning, N.Y.) and cultured in a humid incubator. Cells were grown in a serum-free mammary epithelial basal medium (MEBM; Lonza Group, Basel, Switzerland) containing 1% B27 Supplement (Invitrogen Corporation, Carlsbad, Calif.), 1% penicillin-streptomycin (Invitrogen Corporation, Carlsbad, Calif.), 5 μg/ml insulin (Invitrogen Corporation, Carlsbad, Calif.), 20 ng/ml EGF (Sigma-Aldrich, St. Louis, Mo.), 1 ng/ml hydrocortisone (Sigma-Aldrich, St. Louis, Mo.), and 100 μM β-mercaptoethanol. […] Mammosphere Forming Efficiency (MFE) % was calculated by the number of mammospheres per well/number of cells seeded per well.
Secondary Mammospheres: Primary mammospheres were collected by centrifugation (5 min, 1000 rpm), and dissociated enzymatically in 0.25% typsin-EDTA. Cells were sieved through a 40-μm tip strainer (Bel-Art SP Scienceware, South Wayne, N.J.) and analyzed microscopically for single-cellularity. […] Mammosphere Forming Efficiency (MFE) % was calculated by the number of mammospheres per well/number of cells seeded per well. […]

B1: EGF: growth factor in mammosphere culture media, 20 ng/ml (protein, UniProt P01133 23-1207, looked up)
Pro-epidermal growth factor: PQHWSCPEGTLAGNGNSTCVGPAPFLIFSHGNSIFRIDTEGTNYEQLVVDAGVSVIMDFHYNEKRIYWVDLERQLLQRVFLNGSRQERVCNIEKNVSGMAINWINEEVIWSNQQEGIITVTDMKGNNSHILLSALKYPANVAVDPVERFIFWSSEVAGSLYRADLDGVGVKALLETSEKITAVSLDVLDKRLFWIQYNREGSNSLICSCDYDGGSVHISKHPTQHNLFAMSLFGDRIFYSTWKMKTIWIANKHTGKDMVRINLHSSFVPLGELKVVHPLAQPKAEDDTWEPEQKLCKLRKGNCSSTVCGQDLQSHLCMCAEGYALSRDRKYCEDVNECAFWNHGCTLGCKNTPGSYYCTCPVGFVLLPDGKRCHQLVSCPRNVSECSHDCVLTSEGPLCFCPEGSVLERDGKTCSGCSSPDNGGCSQLCVPLSPVSWECDCFPGYDLQLDEKSCAASGPQPFLLFANSQDIRHMHFDGTDYGTLLSQQMGMVYALDHDPVENKIYFAHTALKWIERANMDGSQRERLIEEGVDVPEGLAVDWIGRRFYWTDRGKSLIGRSDLNGKRSKIITKENISQPRGIAVHPMAKRLFWTDTGINPRIESSSLQGLGRLVIASSDLIWPSGITIDFLTDKLYWCDAKQSVIEMANLDGSKRRRLTQNDVGHPFAVAVFEDYVWFSDWAMPSVMRVNKRTGKDRVRLQGSMLKPSSLVVVHPLAKPGADPCLYQNGGCEHICKKRLGTAWCSCREGFMKASDGKTCLALDGHQLLAGGEVDLKNQVTPLDILSKTRVSEDNITESQHMLVAEIMVSDQDDCAPVGCSMYARCISEGEDATCQCLKGFAGDGKLCSDIDECEMGVPVCPPASSKCINTEGGYVCRCSEGYQGDGIHCLDIDECQLGEHSCGENASCTNTEGGYTCMCAGRLSEPGLICPDSTPPPHLREDDHHYSVRNSDSECPLSHDGYCLHDGVCMYIEALDKYACNCVVGYIGERCQYRDLKWWELRHAGHGQQQKVIVVAVCVVVLVMLLLLSLWGAHYYRTQKLLSKNPKNPYEESSRDVRSRRPADTEDGMSSCPQPWFVVIKEHQDLKNGGQPVAGEDGQAADGSMQPTSWRQEPQLCGMGTEQGCWIPVSSDKGSCPQVMERSFHMPSYGTQTLEGGVEKPHSLLSANPLWQQRALDPPHQMELTQ
modifications: Pro-epidermal growth factor
notes: growth factor in mammosphere culture media, 20 ng/ml
mammosphere formation on removal and add-back of EGF: clear requirement for growth factor signaling
